Source: patent US20220273713A1, “METHOD OF INHIBITING OR ACTIVATING GAMMA DELTA T CELLS” (The University of Melbourne, priority 2019, published 2022)
Several values for one entry are separate records, joined by “and”; a condition that tells them apart may be missing. Equal values may be shown once.

Tests used:
Vγ9Vδ2 cells = experiment: Luminex (Vγ9Vδ2): cytokine/chemokine secretion by pre-expanded Vγ9Vδ2 cells; assay type: cell-based, human; details: for GMCSF / ICAM-1 / IFNγ / IL-4 / IL-8 / IL-13 / IL-17A / MIP-1a / MIP-1b / TNFα / sE-selectin / sP-Selectin: 16 hrs, antibodies 10 μg/ml, Zoledronic acid 4 μM, HMBPP 0.5 ng/ml, duplicates, 0 set to 0.1; for cytokine/chemokine secretion, in words: vs isotype (BM4);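 as to all read-outs here: Vγ9Vδ2 cells purified from PBMC, activated 48 h with CD3 and CD28 plus IL-2, expanded 14 days in IL-2, then thawed and rested overnight in IL-2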
BTN2A1 B30.2 domain = BTN2A1 B30.2 domain (Homo sapiens, UniProt Q7KYR7); details: ITC, 25° C., B30.2 domain 100 μM, pAg 2 mM
Sequence of BTN2A1 B30.2 domain (Q7KYR7 310-506 limits assumed): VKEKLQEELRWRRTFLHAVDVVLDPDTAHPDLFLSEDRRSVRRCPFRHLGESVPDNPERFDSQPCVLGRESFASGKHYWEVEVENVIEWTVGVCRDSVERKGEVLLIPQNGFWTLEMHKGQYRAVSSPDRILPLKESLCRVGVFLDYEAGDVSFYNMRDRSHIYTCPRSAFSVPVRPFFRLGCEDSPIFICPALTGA
Method: ITC experiments were conducted on a MicroCal ITC200 instrument (GE Healthcare) at 25° C. […] Data were analysed with Microcal Origin software.

Vγ9^+ T cells = details: cited from earlier work
[1] = tested on: Vδ2^+ γδ T cells among PBMCs; experiment: γδ T cell functional assay: PBMC ± zoledronate ± anti-BTN2A1 mAb; assay type: cell-based, human; details: PBMCs 24 h, 4 μM zoledronate, 10 μg/ml anti-BTN2A1 mAb, compared to isotype control mAb
Method: Fresh PBMC (2×10^6) were cultured in 24 well plates ±zoledronate (4 μM, Sigma) and purified mAb against BTN2A1, BTN3A1, or isotype control IgG1κ (MOPC-21, BioLegend) (10 μg/ml) After 24 h CD3ε^+ γδTCR^+ Vδ2^+/− γδ T cell activation was assessed by flow cytometry and cytokine production was determined by cytometric bead array according to manufacturer instructions (BD). For the assays in FIG. 14, PBMC were cultured in 24 well plates and blocked for 30 min with mAb against BTN2A1, BTN3A1, or isotype control (10 μg/ml). […] Cells were surface-stained and then fixed and permeabilized using Foxp3/Transcription Factor Staining Buffer Set (Invitrogen) according to the manufacturer's protocol followed by staining with anti-IFN-γ (Biolegend). For co-culture assays, purified and in vitro-expanded γδ T cells (5×10^5) were incubated in 96 well plates with APCs (3×10^5) for 24 h ±zoledronate (4 μM), and γδ T cell activation was determined by flow cytometry as above.

[2] = tested on: in vitro pre-expanded CD3+Vδ2+ γδ T cells; experiment: HMBPP or anti-CD3/anti-CD28 activation of purified in vitro-expanded Vδ2+ T cells ± neutralizing anti-BTN2A1 mAb; assay type: cell-based, human; details: HMBPP 0.5 ng/ml, 10 μg/ml neutralizing anti-BTN2A1 mAb, no APCs
Method: CD25 expression was determined by flow cytometry, and IFN-γ concentration was determined by cytometric bead array (BD Bioscience) as per manufacturer instructions.

[3] = γδT cells from patient 1 (melanoma patient)

| Molecule | ICAM-1 (Vγ9Vδ2 cells; γδT cells from a healthy donor) | IFNγ (Vγ9Vδ2 cells; γδT cells from a healthy donor) | IL-4 (Vγ9Vδ2 cells; γδT cells from a healthy donor) | IL-8 (Vγ9Vδ2 cells; γδT cells from a healthy donor) [pg/mL] | IL-13 (Vγ9Vδ2 cells; γδT cells from a healthy donor) | IL-17A (Vγ9Vδ2 cells; γδT cells from a healthy donor) | MIP-1a (Vγ9Vδ2 cells; γδT cells from a healthy donor) | MIP-1b (Vγ9Vδ2 cells; γδT cells from a healthy donor) | TNFα (Vγ9Vδ2 cells; γδT cells from a healthy donor) | sE-selectin (Vγ9Vδ2 cells; γδT cells from a healthy donor) | sP-Selectin (Vγ9Vδ2 cells; γδT cells from a healthy donor) | GMCSF (Vγ9Vδ2 cells; [3]) | ICAM-1 (Vγ9Vδ2 cells; [3]) | IFNγ (Vγ9Vδ2 cells; [3]) | IL-4 (Vγ9Vδ2 cells; [3]) | IL-13 (Vγ9Vδ2 cells; [3]) | IL-17A (Vγ9Vδ2 cells; [3]) | MIP-1a (Vγ9Vδ2 cells; [3]) | MIP-1b (Vγ9Vδ2 cells; [3]) | TNFα (Vγ9Vδ2 cells; [3]) | also measured |
| --- | --- | --- | --- | --- | --- | --- | --- | --- | --- | --- | --- | --- | --- | --- | --- | --- | --- | --- | --- | --- | --- |
| CC(=CCOP(=O)(O)OP(=O)(O)O)CO [HMBPP, 4-hydroxy-3-methyl-but-2-enyl pyrophosphate, reference compound] | 575.02 pg/mL and 570.14 pg/mL | 751.87 pg/mL and 798.38 pg/mL | 137.56 pg/mL and 117.91 pg/mL | 0.1 | 84.37 pg/mL and 87.99 pg/mL | 8.39 pg/mL and 9.97 pg/mL | 395.47 pg/mL and 392.74 pg/mL | 19239.36 pg/mL and 20123.08 pg/mL | 2186.67 pg/mL and 2148.53 pg/mL | 387.87 pg/mL and 373.47 pg/mL | 3183.34 pg/mL and 3082.95 pg/mL | 2172.54 pg/mL and 2625.54 pg/mL | 729.5 pg/mL and 885.22 pg/mL | 723.16 pg/mL and 791.56 pg/mL | 875.51 pg/mL and 1027.45 pg/mL | 478.3 pg/mL and 602.86 pg/mL | 9.23 pg/mL and 10.85 pg/mL | 321.54 pg/mL and 383.73 pg/mL | 9453.77 pg/mL and 12721.52 pg/mL | 2973.1 pg/mL and 3657.48 pg/mL | GMCSF (Vγ9Vδ2 cells; γδT cells from a healthy donor): 2375.52 pg/mL and 2349.07 pg/mL; sE-selectin (Vγ9Vδ2 cells; [3]): 373.32 pg/mL and 372.16 pg/mL; sP-Selectin (Vγ9Vδ2 cells; [3]): 2542.23 pg/mL and 2775.99 pg/mL; binding of pAg to BTN2A1 B30.2 domain (BTN2A1 B30.2 domain): no clear interaction; sensitivity for HMBPP relative to IPP (Vγ9^+ T cells): ~1000 fold |
| Hu34C1: antagonist anti-BTN2A1 mAb; VH SEQ ID NO: 100, VL SEQ ID NO: 101; human IgG4 Fab, murine IgG2a Fc (antibody, V domains shown, human IgG4 Fab, murine IgG2a Fc constant regions; amino acid sequence of Hu34C VH; amino acid sequence of Hu34C VL) VH: EVQLLESGGGLVQPGGSLRLSCAASGFTFSHYPMIWVRQAPGKGLEWVSSISSSGGSTHYADSVKGRFTISRDNSKNTLYLQMNSLRAEDTAMYYCAALVSDTDFWGQGTLVTVSS VL: DIQMTQSPATLSVSPGESTTLSCRASQSVTSNLAWYQQKPGQAPSLLIYGASTRATGIPARFSGSGSGTEFTLTISSLQSEDSAVYYCQQYNNWPRTFGQGTKVEIK | 0.1 pg/mL | 0.1 pg/mL | 0.1 pg/mL | 0.1 | 0.1 pg/mL | 0.1 pg/mL | 9.16 pg/mL and 7.83 pg/mL | 50.62 pg/mL and 43.18 pg/mL | 0.1 pg/mL | 0.1 pg/mL | 0.1 pg/mL | 8.09 pg/mL and 9.22 pg/mL | 0.1 pg/mL | 0.1 pg/mL | 0.1 pg/mL | 16.14 pg/mL and 14.86 pg/mL | 0.1 pg/mL | 50.75 pg/mL and 51.38 pg/mL | 239.49 pg/mL and 252.05 pg/mL | 0.1 pg/mL | cytokine/chemokine secretion, in words (Vγ9Vδ2 cells; cancer patient derived Vγ9Vδ2 cells): reduction in levels of GMCSF, ICAM1 (to undetectable levels), IFNγ, IL-13, MIP1α and MIP1β as well as sE-selectin; cytokine/chemokine secretion, in words (Vγ9Vδ2 cells; healthy donor derived Vγ9Vδ2 cells): downregulation of MIP1α and b as well as GMCSF; IL-8 (Vγ9Vδ2 cells; [3]): 0.1 pg/mL; sP-Selectin (Vγ9Vδ2 cells; [3]): 0.1 pg/mL; indicators of TCR-dependent activation (CD25 induction, CD3 downregulation, IFN-γ and TNF production) [1]: significantly inhibited; HMBPP-induced activation (CD25 upregulation, IFN-γ production) [2]: failed to upregulate CD25 and produce IFN-γ |
